{
  "source": "the supplement of paper PMC9112550",
  "about": "“Optimization of the antimicrobial peptide Bac7 by deep mutational scanning” (BMC Biology, 2022);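 also: peptides expressed intracellularly from a pBAD plasmid library in pooled LB shake-flask culture, induced with 0.3% L-arabinose, DNA abundance read by NGS, three biological replicates, DESeq2 with apeglm shrinkage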",
  "data": [
    {"system": "Escherichia coli TOP10", "experiment": "shrunken log2 fold change of peptide-encoding DNA abundance (4.5 h post-induction vs induction); higher = less antimicrobial activity (less host growth inhibition)", "settings": "time post-induction: 4.5 h; library: site-saturation at positions 5, 18, 19, 20", "values": [
      {"sequence": "RRIRARPPRLPRPRPRPGHKPRP", "shrunken log2 fold change": -0.197},
      {"sequence": "RRIRSRPPRLPRPRPRPLQPPRP", "shrunken log2 fold change": 0.474},
      {"sequence": "RRIRCRPPRLPRPRPRPKYAPRP", "shrunken log2 fold change": -0.0494},
      {"sequence": "RRIRIRPPRLPRPRPRPNYGPRP", "shrunken log2 fold change": 0.0426},
      {"sequence": "RRIRCRPPRLPRPRPRPAAVPRP", "shrunken log2 fold change": 0.346},
      {"sequence": "RRIRVRPPRLPRPRPRPSHDPRP", "shrunken log2 fold change": -0.159},
      {"sequence": "RRIRQRPPRLPRPRPRPETCPRP", "shrunken log2 fold change": 0.0408},
      {"sequence": "RRIRWRPPRLPRPRPRPGQQPRP", "shrunken log2 fold change": -0.17},
      {"sequence": "RRIRFRPPRLPRPRPRPPRMPRP", "shrunken log2 fold change": 0.332},
      {"sequence": "RRIRTRPPRLPRPRPRPDWHPRP", "shrunken log2 fold change": -0.053},
      {"sequence": "RRIRNRPPRLPRPRPRPRQCPRP", "shrunken log2 fold change": 0.0196},
      {"sequence": "RRIRWRPPRLPRPRPRPVTWPRP", "shrunken log2 fold change": -0.017},
      {"sequence": "RRIRKRPPRLPRPRPRPYDEPRP", "shrunken log2 fold change": -0.293},
      {"sequence": "RRIRNRPPRLPRPRPRPSQVPRP", "shrunken log2 fold change": -0.0797},
      {"sequence": "RRIRCRPPRLPRPRPRPTWMPRP", "shrunken log2 fold change": -0.18},
      {"sequence": "RRIRRRPPRLPRPRPRPVFEPRP", "shrunken log2 fold change": 0.192},
      {"sequence": "RRIRPRPPRLPRPRPRPWMLPRP", "shrunken log2 fold change": -0.168},
      {"sequence": "RRIRNRPPRLPRPRPRPCFQPRP", "shrunken log2 fold change": 0.012},
      {"sequence": "RRIRGRPPRLPRPRPRPWVCPRP", "shrunken log2 fold change": 0.0844},
      {"sequence": "RRIRIRPPRLPRPRPRPQPFPRP", "shrunken log2 fold change": -0.264},
      {"sequence": "RRIRQRPPRLPRPRPRPKIDPRP", "shrunken log2 fold change": -0.146},
      {"sequence": "RRIRVRPPRLPRPRPRPLVKPRP", "shrunken log2 fold change": -0.0152},
      {"sequence": "RRIRYRPPRLPRPRPRPSTRPRP", "shrunken log2 fold change": -0.367},
      {"sequence": "RRIRFRPPRLPRPRPRPTESPRP", "shrunken log2 fold change": -0.154},
      {"sequence": "RRIRFRPPRLPRPRPRPFFMPRP", "shrunken log2 fold change": -0.153},
      {"sequence": "RRIRDRPPRLPRPRPRPCIVPRP", "shrunken log2 fold change": -0.0549},
      {"sequence": "RRIRYRPPRLPRPRPRPWVVPRP", "shrunken log2 fold change": -0.264},
      {"sequence": "RRIRNRPPRLPRPRPRPVFSPRP", "shrunken log2 fold change": -0.192},
      {"sequence": "RRIRARPPRLPRPRPRPSMPPRP", "shrunken log2 fold change": -0.176},
      {"sequence": "RRIRNRPPRLPRPRPRPTLAPRP", "shrunken log2 fold change": 0.556},
      {"sequence": "RRIRLRPPRLPRPRPRPKKPPRP", "shrunken log2 fold change": 0.0873},
      {"sequence": "RRIRIRPPRLPRPRPRPAVAPRP", "shrunken log2 fold change": 0.0259},
      {"sequence": "RRIRERPPRLPRPRPRPNFGPRP", "shrunken log2 fold change": 0.0437},
      {"sequence": "RRIRCRPPRLPRPRPRPGDCPRP", "shrunken log2 fold change": 0.0297},
      {"sequence": "RRIRHRPPRLPRPRPRPFHGPRP", "shrunken log2 fold change": -0.121},
      {"sequence": "RRIRGRPPRLPRPRPRPSKNPRP", "shrunken log2 fold change": 0.619},
      {"sequence": "RRIRQRPPRLPRPRPRPEHKPRP", "shrunken log2 fold change": -0.00178},
      {"sequence": "RRIRMRPPRLPRPRPRPGSPPRP", "shrunken log2 fold change": 0.136},
      {"sequence": "RRIRRRPPRLPRPRPRPEQKPRP", "shrunken log2 fold change": 0.0588},
      {"sequence": "RRIRVRPPRLPRPRPRPFKIPRP", "shrunken log2 fold change": -0.342},
      {"sequence": "RRIRIRPPRLPRPRPRPNRSPRP", "shrunken log2 fold change": 0.00656},
      {"sequence": "RRIRMRPPRLPRPRPRPHLHPRP", "shrunken log2 fold change": -0.301},
      {"sequence": "RRIRFRPPRLPRPRPRPEWWPRP", "shrunken log2 fold change": 0.0105},
      {"sequence": "RRIRPRPPRLPRPRPRPYWDPRP", "shrunken log2 fold change": -0.376},
      {"sequence": "RRIRSRPPRLPRPRPRPIGEPRP", "shrunken log2 fold change": -0.017},
      {"sequence": "RRIRKRPPRLPRPRPRPWKIPRP", "shrunken log2 fold change": -0.00192},
      {"sequence": "RRIRHRPPRLPRPRPRPALMPRP", "shrunken log2 fold change": -0.0655},
      {"sequence": "RRIRGRPPRLPRPRPRPSIDPRP", "shrunken log2 fold change": 1.84},
      {"sequence": "RRIRCRPPRLPRPRPRPVMVPRP", "shrunken log2 fold change": -0.211},
      {"sequence": "RRIRTRPPRLPRPRPRPAYTPRP", "shrunken log2 fold change": -0.149},
      {"sequence": "RRIRPRPPRLPRPRPRPRAHPRP", "shrunken log2 fold change": 0.345},
      {"sequence": "RRIRCRPPRLPRPRPRPGFNPRP", "shrunken log2 fold change": -0.391},
      {"sequence": "RRIRIRPPRLPRPRPRPQYEPRP", "shrunken log2 fold change": -0.184},
      {"sequence": "RRIRIRPPRLPRPRPRPNDLPRP", "shrunken log2 fold change": -0.16},
      {"sequence": "RRIRHRPPRLPRPRPRPEVHPRP", "shrunken log2 fold change": 0.16},
      {"sequence": "RRIRHRPPRLPRPRPRPWMCPRP", "shrunken log2 fold change": -1.49},
      {"sequence": "RRIRKRPPRLPRPRPRPQKWPRP", "shrunken log2 fold change": 0.0282},
      {"sequence": "RRIRIRPPRLPRPRPRPMRVPRP", "shrunken log2 fold change": 0.109},
      {"sequence": "RRIRDRPPRLPRPRPRPCNGPRP", "shrunken log2 fold change": -0.143},
      {"sequence": "RRIRLRPPRLPRPRPRPGGYPRP", "shrunken log2 fold change": -0.192},
      {"sequence": "RRIRERPPRLPRPRPRPYCIPRP", "shrunken log2 fold change": -0.205},
      {"sequence": "RRIRNRPPRLPRPRPRPFKIPRP", "shrunken log2 fold change": -0.0688},
      {"sequence": "RRIRVRPPRLPRPRPRPEMGPRP", "shrunken log2 fold change": 0.104},
      {"sequence": "RRIRLRPPRLPRPRPRPSPNPRP", "shrunken log2 fold change": -0.183},
      {"sequence": "RRIRIRPPRLPRPRPRPRALPRP", "shrunken log2 fold change": 0.0988},
      {"sequence": "RRIRYRPPRLPRPRPRPYIHPRP", "shrunken log2 fold change": -1.31},
      {"sequence": "RRIRTRPPRLPRPRPRPDAFPRP", "shrunken log2 fold change": -0.014},
      {"sequence": "RRIRKRPPRLPRPRPRPPQGPRP", "shrunken log2 fold change": 0.469},
      {"sequence": "RRIRARPPRLPRPRPRPARDPRP", "shrunken log2 fold change": 0.298},
      {"sequence": "RRIRVRPPRLPRPRPRPPQPPRP", "shrunken log2 fold change": 1.38},
      {"sequence": "RRIRERPPRLPRPRPRPPKYPRP", "shrunken log2 fold change": -0.294},
      {"sequence": "RRIRVRPPRLPRPRPRPCRPPRP", "shrunken log2 fold change": 0.00447},
      {"sequence": "RRIRGRPPRLPRPRPRPVGIPRP", "shrunken log2 fold change": 0.414},
      {"sequence": "RRIRERPPRLPRPRPRPQKHPRP", "shrunken log2 fold change": -0.608},
      {"sequence": "RRIRCRPPRLPRPRPRPERCPRP", "shrunken log2 fold change": 0.302},
      {"sequence": "RRIRFRPPRLPRPRPRPCKMPRP", "shrunken log2 fold change": 0.111},
      {"sequence": "RRIRCRPPRLPRPRPRPYSIPRP", "shrunken log2 fold change": -0.608},
      {"sequence": "RRIRIRPPRLPRPRPRPMVPPRP", "shrunken log2 fold change": 0.0231},
      {"sequence": "RRIRWRPPRLPRPRPRPYRCPRP", "shrunken log2 fold change": 0.0623},
      {"sequence": "RRIRPRPPRLPRPRPRPPYWPRP", "shrunken log2 fold change": -0.123},
      {"sequence": "RRIRYRPPRLPRPRPRPFWFPRP", "shrunken log2 fold change": -0.264},
      {"sequence": "RRIRIRPPRLPRPRPRPWTVPRP", "shrunken log2 fold change": -0.15},
      {"sequence": "RRIRQRPPRLPRPRPRPIWEPRP", "shrunken log2 fold change": 0.0296},
      {"sequence": "RRIRVRPPRLPRPRPRPKFFPRP", "shrunken log2 fold change": -0.0182},
      {"sequence": "RRIRTRPPRLPRPRPRPRDWPRP", "shrunken log2 fold change": 0.483},
      {"sequence": "RRIRNRPPRLPRPRPRPQQKPRP", "shrunken log2 fold change": 0.0694},
      {"sequence": "RRIRDRPPRLPRPRPRPFVRPRP", "shrunken log2 fold change": -0.234},
      {"sequence": "RRIRDRPPRLPRPRPRPMFDPRP", "shrunken log2 fold change": 0.894},
      {"sequence": "RRIRYRPPRLPRPRPRPWTDPRP", "shrunken log2 fold change": -0.038},
      {"sequence": "RRIRDRPPRLPRPRPRPKDCPRP", "shrunken log2 fold change": 0.173},
      {"sequence": "RRIRKRPPRLPRPRPRPCLIPRP", "shrunken log2 fold change": -0.36},
      {"sequence": "RRIRGRPPRLPRPRPRPMFKPRP", "shrunken log2 fold change": 0.0694},
      {"sequence": "RRIRFRPPRLPRPRPRPFKQPRP", "shrunken log2 fold change": -0.242},
      {"sequence": "RRIRNRPPRLPRPRPRPEICPRP", "shrunken log2 fold change": 0.0654},
      {"sequence": "RRIRGRPPRLPRPRPRPLLNPRP", "shrunken log2 fold change": 0.76},
      {"sequence": "RRIRGRPPRLPRPRPRPVRKPRP", "shrunken log2 fold change": 1.72},
      {"sequence": "RRIRCRPPRLPRPRPRPSFYPRP", "shrunken log2 fold change": -0.793},
      {"sequence": "RRIRFRPPRLPRPRPRPPSHPRP", "shrunken log2 fold change": 0.123},
      {"sequence": "RRIRFRPPRLPRPRPRPLNYPRP", "shrunken log2 fold change": -0.755},
      {"sequence": "RRIRKRPPRLPRPRPRPYIAPRP", "shrunken log2 fold change": -0.293},
      {"sequence": "RRIRLRPPRLPRPRPRPVEEPRP", "shrunken log2 fold change": 0.21},
      {"sequence": "RRIRPRPPRLPRPRPRPIMWPRP", "shrunken log2 fold change": 0.253},
      {"sequence": "RRIRHRPPRLPRPRPRPWVFPRP", "shrunken log2 fold change": 0.139},
      {"sequence": "RRIRSRPPRLPRPRPRPIMGPRP", "shrunken log2 fold change": -0.0258},
      {"sequence": "RRIRTRPPRLPRPRPRPNGYPRP", "shrunken log2 fold change": -0.12},
      {"sequence": "RRIRRRPPRLPRPRPRPQKMPRP", "shrunken log2 fold change": -0.02},
      {"sequence": "RRIRMRPPRLPRPRPRPLFHPRP", "shrunken log2 fold change": -0.0668},
      {"sequence": "RRIRTRPPRLPRPRPRPKGHPRP", "shrunken log2 fold change": 0.208},
      {"sequence": "RRIRGRPPRLPRPRPRPNTGPRP", "shrunken log2 fold change": 0.0864}
    ]}
  ]
}
